Values of other authors in publication PMC10919381.
Read-outs that look alike come from different tables or passages of the source.

Key:
[1] = molecular target: CBP/p300 TAZ1 (Homo sapiens) (UniProt Q92793)
[2] = molecular target: CBP/p300 TAZ1 (Homo sapiens) (UniProt Q92793); remark: listed apart in the source

UniProt Q92793, sequence (Q92793 347-433): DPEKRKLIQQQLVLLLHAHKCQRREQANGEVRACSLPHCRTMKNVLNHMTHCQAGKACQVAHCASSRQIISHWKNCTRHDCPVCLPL

| Substance | Kd [1] | Kd [2] |
| --- | --- | --- |
| CITED2 (from UniProt Q99967) | 10 nM |  |
| HIF-1α (from UniProt Q16665) |  | 10 nM |
